We go through three molecules from patent US20250257130A1 (NONA BIOSCIENCES SUZHOU, published 2025).

The target of assay [1] is T1, Human ROR1-ECD-his (Acro Biosystems RO1-H522y) (human, UniProt Q01973 30-406).
T1 construct: extracellular domain; bought protein; also called hROR1-ECD-his; hu-ROR1-ECD-his
Kind of assay: BLI in-tandem competition; competitor: PR303145. The source says:
(§1) To determine if anti-ROR1 antibodies bind to human ROR1 on different or approximate binding epitopes, the ForteBio Octet® RED96e platform was used to perform epitope competition experiments on the anti-ROR1 antibodies. Human ROR1 protein (Acrobiosystems, #RO1-H522y) was biotinylated and then captured onto SA biosensors (ForteBio, #18-5020) to reach loading level of 0.3-0.4 nm. The in-tandem competition assay format was applied and it contains two association steps. Firstly, the antigen-loaded biosensors bind to each antibody (a.k.a, First antibody, 1st Ab) with a saturating concentration of 200 nM for 180 seconds to reach equilibrium and then secondly bind to the competing antibodies (a.k.a, Second antibody, 2nd Ab) of 200 nM for 180 seconds. The second binding signals were recorded as the 100% signal of each antibody when the first antibodies were replaced by kinetics buffer. All the binding data were analyzed using ForteBio Data Analysis 11.0 software. The inhibition rate is calculated by the following formula: […]

In assay [2] the target is T2, human ROR1 on cells (HEK293T-hROR1, PANC-1, A549) (human, UniProt Q01973 30-937).
T2 construct: whole, on cells; one molecule for the three cell lines; also called huROR1; cell surface ROR1
T2 sequence (Q01973 30-937): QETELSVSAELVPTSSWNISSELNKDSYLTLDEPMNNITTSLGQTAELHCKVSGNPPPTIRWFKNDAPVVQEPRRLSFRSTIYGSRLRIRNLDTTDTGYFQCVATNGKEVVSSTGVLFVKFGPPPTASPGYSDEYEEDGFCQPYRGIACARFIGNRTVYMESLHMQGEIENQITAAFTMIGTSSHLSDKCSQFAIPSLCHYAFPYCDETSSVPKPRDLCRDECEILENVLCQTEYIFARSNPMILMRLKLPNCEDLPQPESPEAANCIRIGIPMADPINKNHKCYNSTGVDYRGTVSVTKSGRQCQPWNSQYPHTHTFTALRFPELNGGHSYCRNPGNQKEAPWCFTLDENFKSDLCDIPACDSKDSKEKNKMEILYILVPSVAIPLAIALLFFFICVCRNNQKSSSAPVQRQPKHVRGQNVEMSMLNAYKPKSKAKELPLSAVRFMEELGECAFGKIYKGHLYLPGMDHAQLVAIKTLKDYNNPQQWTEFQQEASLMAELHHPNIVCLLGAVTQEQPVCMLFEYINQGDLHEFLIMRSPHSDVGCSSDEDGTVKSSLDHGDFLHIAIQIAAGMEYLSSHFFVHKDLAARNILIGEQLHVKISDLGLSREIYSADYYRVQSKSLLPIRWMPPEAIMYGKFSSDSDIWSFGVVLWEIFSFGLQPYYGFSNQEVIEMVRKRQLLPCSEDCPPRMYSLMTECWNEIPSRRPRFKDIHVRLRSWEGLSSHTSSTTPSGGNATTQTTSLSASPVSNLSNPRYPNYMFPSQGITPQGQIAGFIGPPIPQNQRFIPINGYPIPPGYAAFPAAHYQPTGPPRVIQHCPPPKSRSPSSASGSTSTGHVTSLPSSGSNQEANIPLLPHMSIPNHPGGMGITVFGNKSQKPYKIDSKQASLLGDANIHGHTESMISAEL
Kind of assay: flow cytometry on HEK293T-hROR1 cells, MFI (Mean). As for the experimental part: Binding of recombinant anti-ROR1 antibodies to human or cynomolgus ROR1-overexpressing cells was tested by flow cytometry. In this example, ROR1-expressing cell lines are HEK293T cell lines that had been transfected to express human ROR1 on the surface (HEK293T-hu ROR1, KYINNO BIOTECHNOLOGY CO., LTD, Catalog #KC-1018), CHO-K1 cell lines that had been transfected to express cynomolgus ROR1 (CHOK1-cyno ROR1), PANC-1 (ATCC, catalog: CRL-1469) or A549 cell lines (Shanghai Institute of Biochemistry and Cell Biology, Chinese Academy of Sciences).
(§2) In brief, anti-ROR1 antibodies were serially diluted in staining buffer (PBS containing 2% FBS). Antibody solution was incubated with 1×10⁵ cells at 4° C. for 1 hour. […] After 1-hour incubation at 4° C., cells were washed twice with staining buffer and subjected to flow cytometry. PR000374 (Bench marker 1) and non-relevant IgG isotype control (Crownbio) were used as positive and negative controls, respectively.

Assay [3] addresses T1, Human ROR1-ECD-his (Acro Biosystems …). Kind of assay: BLI in-tandem competition; competitor: PR303155.
From the text: as §1

The target is the same in assay [4]. Kind of assay: BLI in-tandem competition; competitor: PR303191.
From the text: as §1

Assay [5] concerns the target T2, human ROR1 on cells (HEK293T-hROR1, …). Kind of assay: flow cytometry, HEK293T-hROR1 cells. As for the experimental part: as §2
Assay [6] has the same target. Kind of assay: flow cytometry, PANC-1 cells. As for the experimental part:
as §2

Assay [7] has as its target T1, Human ROR1-ECD-his (Acro Biosystems …). Kind of assay: BLI in-tandem competition; competitor: PR303199.
From the text: as §1

The target of assay [8] is T2, human ROR1 on cells (HEK293T-hROR1, …). Kind of assay: flow cytometry, A549 cells. The protocol:
as §2

The target in assay [9] is T1, Human ROR1-ECD-his (Acro Biosystems …). Kind of assay: BLI in-tandem competition; competitor: PR303125.
From the text: as §1

For assay [10] the target is unchanged. Kind of assay: BLI in-tandem competition; competitor: PR303147.
From the text: as §1

Assay [11] addresses T3, hu-ROR2-ECD-his (Acrobiosystems RO2-H52E5) (human, UniProt Q01974 34-403).
T3 construct: extracellular domain; bought protein; also called Human ROR2 his-tagged protein; Human ROR2, His Tag
Kind of assay: ELISA, plate coated with hu-ROR2-his at 1 µg/mL. In a few lines:
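Plates were coated overnight at 4 °C with 1 μg/mL human ROR2-ECD-his and blocked with 2% BSA. Serially diluted anti-ROR1 antibodies were bound for 1 h at 37 °C, then secondary antibody for 1 h at 37 °C. Detection was by TMB (~5 min), stopped with H2SO4, and read at 450/570 nm.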

Assay [12] has as its target T1, Human ROR1-ECD-his (Acro Biosystems …). Kind of assay: ELISA, coated hu-ROR1-ECD-his.

T3 sequence (Q01974 34-403): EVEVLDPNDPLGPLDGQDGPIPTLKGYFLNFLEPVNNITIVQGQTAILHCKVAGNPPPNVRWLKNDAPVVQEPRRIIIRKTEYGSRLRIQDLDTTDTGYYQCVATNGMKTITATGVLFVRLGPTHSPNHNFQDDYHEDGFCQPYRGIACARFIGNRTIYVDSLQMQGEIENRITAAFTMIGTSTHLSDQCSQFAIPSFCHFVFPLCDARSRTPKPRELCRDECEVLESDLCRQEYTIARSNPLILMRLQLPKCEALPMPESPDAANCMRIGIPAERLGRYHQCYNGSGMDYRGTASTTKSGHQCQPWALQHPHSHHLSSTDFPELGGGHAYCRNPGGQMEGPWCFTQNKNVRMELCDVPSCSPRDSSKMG
T1 sequence (Q01973 30-406): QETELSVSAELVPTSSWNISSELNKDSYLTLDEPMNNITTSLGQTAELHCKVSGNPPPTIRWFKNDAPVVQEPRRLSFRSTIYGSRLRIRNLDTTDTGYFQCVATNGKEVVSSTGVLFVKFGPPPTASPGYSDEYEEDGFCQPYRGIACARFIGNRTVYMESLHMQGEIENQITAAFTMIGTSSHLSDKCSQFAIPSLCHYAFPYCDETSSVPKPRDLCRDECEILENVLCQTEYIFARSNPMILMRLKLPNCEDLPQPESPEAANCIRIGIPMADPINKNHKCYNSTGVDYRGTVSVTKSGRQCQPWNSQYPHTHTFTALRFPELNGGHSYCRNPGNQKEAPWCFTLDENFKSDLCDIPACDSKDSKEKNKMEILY

B1: PR000374 (antibody, human IgG1, kappa, V domains shown)
VH: EVQLVESGGGLVQPGRSLRLSCTASGSDINDYPITWVRQAPGQGLEWIGFINSGGSTWYASWVKGRFTISRDDSKSIAYLQMNSLKTEDTAVYYCARGYSTYYRDFNIWGQGTLVTVSS
VL: DIQMTQSPSSLSASVGDRVTINCQASQSIDSNLAWFQQKPGQPPKLLIYRASNLASGVPDRFSGSGSGTDFTLTISSLEAEDVATYYCLGGVGAVSYRTSFGGGTKVEIKR
notes: positive control; also called Bench marker 1
Regarding B1, the “Inhibition (%)” value was -61% in assay [1]; -67% in [3]; -34% in assay [4]; -61% in [7]; -45% in [9]; -72% in assay [10]. Moreover, the “EC50 (read off the curve)” value in assay [2] is around 0.5 µg/mL. In addition, the EC50 in assay [5] was determined as 0.506 µg/mL; in assay [6] it was 0.905 µg/mL; in assay [8], 0.61 µg/mL; in assay [12] it was 0.001 µg/mL. The “MAX(MFI)” value turned out to be 1.49e+07 MFI in assay [5], 442000 MFI in assay [6] and 695000 MFI in assay [8]. Moreover, the binding result in assay [11] is given as “no binding (tested: about 15 µg/ml)”.

B2: PR303125 (antibody, human IgG1, V domains shown)
VH: EVQLLESGGGLVQPGGSLRLSCAASGFTFSSHAMSWVRQAPGKGLEWVSAISGSGDSTHYAASVKGRFTISRDNSKNTLYLQMNSLRAEDTAVYYCETLLRFLESLGNDGFKIWGQGTMVTVSS
notes: HCAb (heavy chain-only, human IgG1 Fc), no light chain
As to B2, the “Inhibition (%)” value was -41% in assay [1]; -62% in assay [3]; 109% in assay [4]; -48% in assay [7]; 104% in [9]; -88% in assay [10]. In addition, the “EC50 (read off the curve)” value in assay [2] is around 0.3 µg/mL. The EC50 came out at 0.273 µg/mL in [5], 0.463 µg/mL in assay [6], 0.16 µg/mL in [8] and 0.002 µg/mL in [12]. Further, the results for the “MAX(MFI)” value in assay [5], in [6] and in assay [8] were 1.5e+07 MFI, 883000 MFI and 668000 MFI, respectively. Besides, in assay [11], the binding result is “no binding (tested: about 15 µg/ml)”.

B3: PR303191 (antibody, human IgG1, V domains shown)
VH: EVQLLESGGGLVQPGGSLRLSCAASGFIFGSYAMSWVRQAPGKGLEWVSGISGTGGNTYYADSVKGRFTISRDNSKNTLYLQMNSLRAEDTAVYFCERGITIHGVVIIPPDYRGQGTLVTVSS
notes: as for B2
On to B3, for which the “Inhibition (%)” value in [1] is -70%; in assay [3] it was -62%; in assay [4], 80%; in assay [7] it was -57%; in assay [9] it was 80%; in assay [10], -60%. In addition, the “EC50 (read off the curve)” value in [2] is around 0.04 µg/mL. Besides, the EC50 in assay [5] amounted to 0.044 µg/mL; in assay [8], 0.01 µg/mL; in [12], 0.001 µg/mL. Also, the results for the “MAX(MFI)” value in [5], in assay [6] and in assay [8] were 1.4e+07 MFI, 364000 MFI and 650000 MFI, respectively. In addition, in [11], the binding result is “no binding (tested: about 15 µg/ml)”.
